From article PMC4954732, “Sterol Biosynthesis and Azole Tolerance Is Governed by the Opposing Actions of SrbA and the CCAAT Binding Complex”

Target: T1, SrbA bHLHZ (Aspergillus fumigatus, UniProt Q4WIN1 161-267)
T1 sequence: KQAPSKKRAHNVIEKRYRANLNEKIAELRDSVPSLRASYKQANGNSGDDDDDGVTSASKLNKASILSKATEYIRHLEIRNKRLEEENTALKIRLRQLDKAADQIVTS
Experiment: SPR; apparent Kd; Rmax 197.6, two homodimers proposed; SPR on immobilised biotinylated duplexes, 1:1 model with mass transport; buffer, salt, pH and temperature not stated (protocols of refs 19, 54)
Conditions: protein: recombinant; chain copies: 2; label: 5' biotin on strand 1; blunt

B1: SRE1+SRE2 (cyp51Ap-320-32) (dsDNA)
DNA 1: AGAATCACGCGGTCCGGATGTGTGCTGAGCCG
DNA 2: CGGCTCAGCACACATCCGGACCGCGTGATTCT
With B1 as the binder, how does the Kd read?
The Kd was 22 nM.
